Results as given in patent US20250109210A1 (ABSCI, published 2025).

Key:
TL1A [1] = molecular target: T1, TL1A (UniProt O95150 72-251, limits assumed); assay: selectivity ELISA: antibody pre-incubated with TL1A, inhibition of TL1A binding to plate-coated DR3
T1 construct: also called TNFSF15
T1 sequence (looked up): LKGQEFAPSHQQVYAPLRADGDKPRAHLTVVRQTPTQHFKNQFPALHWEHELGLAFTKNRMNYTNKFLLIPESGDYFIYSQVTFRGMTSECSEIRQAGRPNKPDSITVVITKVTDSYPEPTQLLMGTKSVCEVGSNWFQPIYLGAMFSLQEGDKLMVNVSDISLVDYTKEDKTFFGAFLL

TL1A [2] = molecular target: T1, TL1A; assay: selectivity ELISA: antibody pre-incubated with TL1A, inhibition of TL1A binding to plate-coated DcR3

B1: MK-7240 (antibody, V domains shown)
VH: QVQLVQSGAEVKKPGASVKVSCKASGFDIQDTYMHWVKQRPGQGLEWMGRIDPASGHTKYDPKFQVRVTITRDTSTSTVYLELSSLRSEDTAVYYCARSGGLPDVWGQGTTVTVSS
VL: EIVLTQSPGTLSLSPGERATLSCRASSSVSYMYWYQQKPGQAPRPLIYATSNLASGIPDRFSGSGSGTDFTLTISRLEPEDFAVYYCQQWEGNPRTFGGGTKLEIK
**Q.** B1 was tested. Which IC50 (TL1A [1]) did it give?
**A.** The IC50 was 6.3 µg/mL.

**Q.** And the IC50 (TL1A [2])?
**A.** The IC50 was 3.6 µg/mL.
